According to publication PMC5356271, “Identification of a tripartite interaction between the N-terminus of HIV-1 Vif and CBFβ that is critical for Vif function” (Retrovirology, 2017):
Where a chain is given by its changes, count along the chain named. Names and notes keep the numbering of the source.

T1: Flag-CBFβ F68D (UniProt Q13951 1-170, F68D)
T1 construct: source: 293T, transfected, in lysate
T1 sequence: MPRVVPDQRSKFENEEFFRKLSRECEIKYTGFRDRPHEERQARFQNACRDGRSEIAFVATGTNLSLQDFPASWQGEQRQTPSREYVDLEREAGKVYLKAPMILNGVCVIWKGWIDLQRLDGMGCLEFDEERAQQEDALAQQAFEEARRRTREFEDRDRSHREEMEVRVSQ

T2: Flag-CBFβ I55D (UniProt Q13951 1-170, I55D)
T2 construct: source: 293T, transfected, in lysate
T2 sequence: T1 sequence with I55D, D68F

T3: Flag-CBFβ I55A–F68D (UniProt Q13951 1-170, I55A | F68D)
T3 construct: source: 293T, transfected, in lysate
T3 sequence: T1 sequence with I55A

T4: Flag-CBFβ I55D–F68D (UniProt Q13951 1-170, I55D | F68D)
T4 construct: source: 293T, transfected, in lysate
T4 sequence: T1 sequence with I55D

T5: Flag-CBFβ (core-binding factor β), wild type (UniProt Q13951 1-170)
T5 construct: Flag-CBFβ expression plasmid obtained from Addgene; plasmid number not given; also called CBFβ-WT; WT CBFβ; source: 293T, transfected, in lysate
T5 sequence: T1 sequence with D68F

B1: HIV-1 Vif, wild type (natural protein)
chain: not shown
notes: HIV-1 Vif; Untagged; also called WT Vif; source: 293T, transfected, in lysate
B2: HIV-1 Vif 5WQVM8 > A4 (quadruple-alanine substitution mutant) (natural protein)
chain: not shown
notes: HIV-1 Vif; Untagged; also called 5WQVM8 > 4A; source: 293T, transfected, in lysate
B3: HIV-1 Vif 9IVW11 > A3 (triple-alanine substitution mutant) (natural protein)
chain: not shown
notes: HIV-1 Vif; Untagged; also called 9IVW11 > 3A; source: 293T, transfected, in lysate
B4: HIV-1 Vif V7A–M8A (natural protein)
chain: not shown
B5: HIV-1 Vif W11A (natural protein)
chain: not shown

Experiments:
[1] = molecular target: T1, Flag-CBFβ F68D; assay: co-IP; 293T cells co-transfected with Flag-CBFβ (4 μg) and untagged Vif (4 μg); lysates after 48 h; anti-Flag immunoprecipitation; co-precipitated Vif quantified by western blot (Odyssey) relative to wild type set to 100%; for the CBFβ mutants endogenous CBFβ was first knocked down by siRNA against the 3' UTR (Fig. 5, 7) and cells were treated with MG132 (5 μM, 16 h) in Fig. 7; settings: partners not purified
[2] = molecular target: T2, Flag-CBFβ I55D; assay: as above; settings: partners not purified
[3] = molecular target: T3, Flag-CBFβ I55A–F68D; assay: as above; settings: partners not purified
[4] = molecular target: T4, Flag-CBFβ I55D–F68D; assay: as above; settings: partners not purified
[5] = molecular target: T5, Flag-CBFβ (core-binding factor β), wild …; assay: as above; settings: partners not purified
[6] = molecular target: T5, Flag-CBFβ (core-binding factor β), wild …; assay: cell-based or functional assay

Binder	binding efficiency relative to WT Vif (100%) [5] [%]	infectivity of virus produced with A3G in CBFβ-depleted (siRNA) 293T cells, relative to WT Vif with control siRNA (100%) [6] [%]	further results
B1	–	–	binding efficiency relative to CBFβ-WT (100%) [1]: ~28%; binding efficiency relative to CBFβ-WT (100%) [2]: ~15%; binding efficiency relative to CBFβ-WT (100%) [3]: ~8%; binding efficiency relative to CBFβ-WT (100%) [4]: ~8%
B2	2	–	–
B3	0.3	–	–
B4	–	8	–
B5	–	4	–
